Assay [1] has as its target Taxol-stabilized microtubules polymerized from purified porcine tubulin (porcine) (UniProt P02550). Put plainly: cross-linking.
The target is the same in assay [2]. Put plainly: co-sedimentation.

As for “MBP-MEI-2 1–90 K77A-K78A (from UniProt O44740 1-90) (domain or fragment)”, the MEI-2*tubulin crosslinked band, percent of the WT fragment in assay [1] amounted to 84%. As for “MBP-MEI-2 1–90 K77D-K78D (from UniProt O44740 1-90) (domain or fragment)”, in assay [1], the MEI-2*tubulin crosslinked band, percent of the WT fragment amounted to 87%.

For “MBP-MEI-2 full length 6KA (K8A-K9A K77A-K78A K274A-K275A) (from UniProt O44740 1-280) (natural protein)”, the dissociation constant Kd in assay [2] is 3.68 µM. The same substance displayed an MEI-2*tubulin crosslinked band, percent of WT in assay [1] of 53%. Consider “MBP-MEI-2 full length 6KD (K8D-K9D K77D-K78D K274D-K275D) (from UniProt O44740 1-280) (natural protein)”, for which the Kd in assay [2] stood at 6.15 µM. Also, the MEI-2*tubulin crosslinked band, percent of WT in assay [1] was found to be 6%.

In general, Kd refers to the equilibrium constant for the complex coming apart. A low value points to a tighter complex.

The values above are taken from paper PMC10853069.
